Results taken from patent US11649460B2, “DNA aptamers, method for inhibiting human galectin-1 and method of treating a mammal in need thereof” (priority 2020, dated 2023).

Legend:
[1] = test system: HCT 116 human colorectal carcinoma; assay: SRB cell proliferation (cytotoxicity) assay, HCT 116
Text: (§1) The XLSTAT software was used to determine the IC50, TGI and LC50 values using the four-parameter logistic curve equation.

[2] = test system: OVCAR-3 human ovarian adenocarcinoma cell line; assay: SRB cell proliferation (cytotoxicity) assay, OVCAR-3
Text: as §1

[3] = target: T1, alkylated Gal1 (Homo sapiens, UniProt P09382); assay: Hemagglutination inhibition assay, alkylated Gal1; type: cell-based; conditions: alkylated Gal1 5 μM
T1 construct: 42; made in house; host or cells: E. coli strain M-15
Description: FIG. 15 illustrates the hemagglutination test with constant protein concentration at 5 μM and titration of aptamers SEQ ID NO.: 4 and SEQ ID NO.: 9. (a) Titration with aptamer 4. The hemagglutination of native Gal1 was inhibited from the concentration of 10 μM of this compound.
(§2) Hemagglutination assay was adopted to assess the capacity of SEQ ID NO.: 4 in inhibiting the lectin cross-linking aggregation of red blood cells (RBC), as previously described. Briefly, using a 96-well microplates appropriate amounts of 5 μM hGal1 were blended with 50 μL of aptamer in an increasing concentrations manner (0-40 μM) in PBS 1× buffer (pH 7.4). Following, 50 μL of 3% purified type B+ RBC in PBS. After 2 h of room temperature incubation, the plate was photographed and the hemagglutination area was estimated by area calculator Sketchandcalc™ and the results were expressed as relative agglutination.
It was observed that treating hGal-1 with Iodoacetamide, which covalently binds the acetamide group in all solvent accessible cysteines sulfhydryl side chain, abolishes the anti-hemagglutinating activity of the aptamer. According to the proposed binding mode, this happens because Cysteines 2, 88 and 130 interact directly with the aptamer and adding the acetamide group to their side chains would disrupt specific aptamer-protein interactions (FIG. 13C).

[4] = test system: SK-BR-3 human breast adenocarcinoma; assay: SRB cell proliferation (cytotoxicity) assay, SK-BR-3
Text: as §1

[5] = test system: DU-145 human prostate carcinoma cell line; assay: SRB cell proliferation (cytotoxicity) assay, DU-145
Text: as §1

[6] = test system: A-375 human malignant melanoma; assay: SRB cell proliferation (cytotoxicity) assay, A-375
Text: as §1

[7] = test system: NHF human foreskin skin fibroblasts; assay: in vitro
Text: as §1

[8] = test system: MCF-7 human breast adenocarcinoma cell line; assay: SRB cell proliferation (cytotoxicity) assay, MCF-7
Text: as §1

[9] = target: T2, hGal1-induced hemagglutination of red blood cells (Homo sapiens, UniProt P09382); assay: Hemagglutination inhibition assay, native hGal1; type: cell-based; conditions: native Gal1 5 μM
T2 construct: 42; made in house; host or cells: E. coli strain M-15
Description: Hemagglutination Inhibition Assay
as §2

[10] = target: T3, native human galectin-1 (hGal1) (Homo sapiens, UniProt P09382); assay: Thermofluor thermal shift assay (TSA), native galectin-1; type: binding; conditions: 5 μM protein
T3 construct: 42; made in house; host or cells: E. coli strain M-15
Description: In an attempt to screen among the selected aptamers that better interact with hGal1, differential scanning fluorimetry (Termofluor) was used to characterize their binding to its target. Among all the selected aptamers, SEQ ID NO.: 4 seemed to have a more intense effect on hGal1 thermoshift and so was chosen for further analysis. The selected aptamer had its interaction evaluated with native and alkylated galectin-1. […] The respective thermal displacements were evaluated as a function of an increasing concentration of SEQ ID NO.: 4 (FIG. 1).
Thermofluor experiments were performed on an Mx3005 RT-PCR (Agilent Technologies) using the SYPRO® Orange dye (492/610 nm) (Invitrogen) as fluorescent probe. The purified (native and alkylated) protein samples were incubated for 30 min with increasing concentration of the molecules of interest, centrifuged, and submitted to the thermal denaturation assay, totalizing four distinct experiments. In a 96-well plate (Agilent Technologies) 20 μl of the reaction containing 5 μM of each protein in buffer PBS 1× and 5× SYPRO® Orange were heated from 25° C. to 95° C. at a rate of 1° C./min. The experimental result was processed as in the protocol previously described and the melting temperature was obtained using GraphPad Prism software (www.graphpad.com).

[11] = test system: HT-29 human colorectal adenocarcinoma; assay: SRB cell proliferation (cytotoxicity) assay, HT-29
Text: as §1

T2 sequence (P09382 2-135): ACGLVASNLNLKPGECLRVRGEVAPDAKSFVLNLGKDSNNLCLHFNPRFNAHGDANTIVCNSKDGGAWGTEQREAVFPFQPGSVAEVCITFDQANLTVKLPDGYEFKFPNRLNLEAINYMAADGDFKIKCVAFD
T1 sequence (P09382 2-135): as above
T3 sequence (P09382 2-135): as above

B1: AGCTGACACAGCAGGTTGGTGCCCAAAAGAGCCAATCCACGACGACACCCCAAAAACCATATCACGAATACCCGAGTCGAGCAATCTCGAAAT (nucleic acid)
DNA: AGCTGACACAGCAGGTTGGTGCCCAAAAGAGCCAATCCACGACGACACCCCAAAAACCATATCACGAATACCCGAGTCGAGCAATCTCGAAAT
modifications: chemistry not given here
Relative cell viability (%) of test items ([1]; 0.781 µM): 99.9%
Relative cell viability (%) of test items ([1]; 1.562 µM): 94.6%
Relative cell viability (%) of test items ([1]; 3.125 µM): 87.9%
Relative cell viability (%) of test items ([1]; 6.25 µM): 88.9%
Relative cell viability (%) of test items ([1]; 12.5 µM): 72.2%
Relative cell viability (%) of test items ([1]; 25 µM): 33.3%
Relative cell viability (%) of test items ([1]; 50 µM): 11.5%
Relative cell viability (%) of test items ([1]; 100 µM): −19.5%
TGI: Concentration for total inhibition of cell growth ([1]; HCT 116): 58.519 µM
IC50 ([1]; read-out: IC50: Concentration to inhibit 50% of cell growth, HCT 116): 20.1 µM
Relative viability (%) of test items ([2]; 0.781 µM): 105.9%
Relative viability (%) of test items ([2]; 1.562 µM): 99.6%
Relative viability (%) of test items ([2]; 3.125 µM): 93.9%
Relative viability (%) of test items ([2]; 6.25 µM): 84.3%
Relative viability (%) of test items ([2]; 12.5 µM): 50.2%
Relative viability (%) of test items ([2]; 25 µM): 23.4%
Relative viability (%) of test items ([2]; 50 µM): 8.1%
Relative viability (%) of test items ([2]; 100 µM): −62.0%
TGI: Concentration for total inhibition of cell growth ([2]; OVCAR-3): 45.952 µM
IC50 ([2]; read-out: IC50: Concentration to inhibit 50% of cell growth, OVCAR-3): 16.1 µM
CC50 ([2]; read-out: LC50: Concentration for 50% cell death, OVCAR-3): 91.4 µM
effect on hemagglutination by alkylated Gal1 [3]: no effect
Relative cell viability (%) of test items ([4]; 0.781 µM): 107.5%
Relative cell viability (%) of test items ([4]; 1.562 µM): 99.9%
Relative cell viability (%) of test items ([4]; 3.125 µM): 111.1%
Relative cell viability (%) of test items ([4]; 6.25 µM): 109.1%
Relative cell viability (%) of test items ([4]; 12.5 µM): 98.5%
Relative cell viability (%) of test items ([4]; 25 µM): 48.7%
Relative cell viability (%) of test items ([4]; 50 µM): 3.1%
Relative cell viability (%) of test items ([4]; 100 µM): −70.0%
TGI: Concentration for total inhibition of cell growth ([4]; SK-BR-3): 49.017 µM
IC50 ([4]; read-out: IC50: Concentration to inhibit 50% of cell growth, SK-BR-3): 28.3 µM
CC50 ([4]; read-out: LC50: Concentration for 50% cell death, SK-BR-3): 80.7 µM
Relative viability (%) of test items ([5]; 0.781 µM): 106.1%
Relative viability (%) of test items ([5]; 1.562 µM): 92.3%
Relative viability (%) of test items ([5]; 3.125 µM): 106.4%
Relative viability (%) of test items ([5]; 6.25 µM): 103.6%
Relative viability (%) of test items ([5]; 12.5 µM): 98.7%
Relative viability (%) of test items ([5]; 25 µM): 82.5%
Relative viability (%) of test items ([5]; 50 µM): 68.0%
Relative viability (%) of test items ([5]; 100 µM): 36.6%
TGI: Concentration for total inhibition of cell growth ([5]; DU-145): >100 µM
IC50 ([5]; read-out: IC50: Concentration to inhibit 50% of cell growth, DU-145): 74 µM
Relative cell viability (%) of test items ([6]; 0.781 µM): 121.2%
Relative cell viability (%) of test items ([6]; 1.562 µM): 107.1%
Relative cell viability (%) of test items ([6]; 3.125 µM): 107.0%
Relative cell viability (%) of test items ([6]; 6.25 µM): 114.0%
Relative cell viability (%) of test items ([6]; 12.5 µM): 97.7%
Relative cell viability (%) of test items ([6]; 25 µM): 92.5%
Relative cell viability (%) of test items ([6]; 50 µM): 70.6%
Relative cell viability (%) of test items ([6]; 100 µM): −19.4%
TGI: Concentration for total inhibition of cell growth ([6]; A-375): 90.397 µM
IC50 ([6]; read-out: IC50: Concentration to inhibit 50% of cell growth, A-375): 61.1 µM
CC50 ([6]; read-out: LC50: Concentration for 50% cell death, A-375): > 100 µM
Relative viability (%) of test items ([7]; 0.781 µM): 104.0%
Relative viability (%) of test items ([7]; 1.562 µM): 96.2%
Relative viability (%) of test items ([7]; 3.125 µM): 95.7%
Relative viability (%) of test items ([7]; 6.25 µM): 92.7%
Relative viability (%) of test items ([7]; 12.5 µM): 114.0%
Relative viability (%) of test items ([7]; 25 µM): 84.6%
Relative viability (%) of test items ([7]; 50 µM): 44.6%
Relative viability (%) of test items ([7]; 100 µM): −12.8%
TGI: Concentration for total inhibition of cell growth ([7]; NHF): 83.697 µM
IC50 ([7]; read-out: IC50: Concentration to inhibit 50% of cell growth, NHF): 46.9 µM
Relative viability (%) of test items ([8]; 0.781 µM): 103.8%
Relative viability (%) of test items ([8]; 1.562 µM): 95.5%
Relative viability (%) of test items ([8]; 3.125 µM): 97.8%
Relative viability (%) of test items ([8]; 6.25 µM): 84.8%
Relative viability (%) of test items ([8]; 12.5 µM): 73.6%
Relative viability (%) of test items ([8]; 25 µM): 55.1%
Relative viability (%) of test items ([8]; 50 µM): 37.5%
Relative viability (%) of test items ([8]; 100 µM): −19.5%
TGI: Concentration for total inhibition of cell growth ([8]; MCF-7): 80.767 µM
IC50 ([8]; read-out: IC50: Concentration to inhibit 50% of cell growth, MCF-7): 32 µM
CC50 ([8]; read-out: LC50: Concentration for 50% cell death, MCF-7): > 100 µM
concentration from which hemagglutination was inhibited [9]: 10 µM
inhibitory effect on galectin-induced hemagglutination [9]: better effect
variation of denaturation temperature (Tm) of native hGal1 [10]: greater variation
Relative cell viability (%) of test items ([11]; 0.781 µM): 92.0%
Relative cell viability (%) of test items ([11]; 1.562 µM): 95.9%
Relative cell viability (%) of test items ([11]; 3.125 µM): 97.2%
Relative cell viability (%) of test items ([11]; 6.25 µM): 92.5%
Relative cell viability (%) of test items ([11]; 12.5 µM): 83.1%
Relative cell viability (%) of test items ([11]; 25 µM): 32.7%
Relative cell viability (%) of test items ([11]; 50 µM): 14.4%
Relative cell viability (%) of test items ([11]; 100 µM): 0.2%
IC50 ([11]; read-out: IC50: Concentration to inhibit 50% of cell growth, HT-29): 20.4 µM
